The Human Domainome abundance scans (Beltran et al. 2025)
± gives the uncertainty stated by the source.

B1: Tyrosine-protein kinase BTK, residues 215 to 273; numbered along this chain, Q06187 (parent)
chain: ELKKVVALYDYMPMNANDLQLRKGDEYFILEESNLPWWRARDKNGQEGYIPSNYVTEAE

Variants of: B1
Test: abundance fitness (aPCA) (normalised: wild type 0, dead -1); higher = more abundant; growth selection in yeast, the domain comes from the species named
Settings: Homo sapiens

Abundance fitness of substitutions, site by site:
N44: Q -0.016 ± 0.051, E -0.009 ± 0.061, A -0.041 ± 0.055, I 0.036 ± 0.099, H -0.063 ± 0.072, L -0.023 ± 0.042, D -0.01 ± 0.066, S -0.05 ± 0.049, R -0.067 ± 0.043, W -0.056 ± 0.065, V -0.054 ± 0.049, K 0.07 ± 0.082, F -0.026 ± 0.051, G 0.017 ± 0.046, M -0.061 ± 0.095, T 0.029 ± 0.051, C -0.019 ± 0.076
G45: E -0.156 ± 0.045, Q -0.144 ± 0.05, W -0.224 ± 0.036, I -0.809 ± 0.15, N 0.008 ± 0.093, R -0.16 ± 0.032, H -0.118 ± 0.12, L -0.08 ± 0.038, F -0.173 ± 0.073, T -0.425 ± 0.062, P -1.05 ± 0.15, K -0.125 ± 0.053, C -0.162 ± 0.064, D -0.057 ± 0.065, A -0.073 ± 0.04, V -0.641 ± 0.046, Y -0.062 ± 0.072, S -0.125 ± 0.04
E47: F -0.235 ± 0.055, Q -0.113 ± 0.059, R -0.244 ± 0.036, N -0.115 ± 0.067, A -0.086 ± 0.051, M -0.156 ± 0.05, K -0.107 ± 0.061, L -0.163 ± 0.035, G -0.451 ± 0.05, T -0.061 ± 0.042, W -0.104 ± 0.044, H -0.219 ± 0.07, I -0.142 ± 0.072, P -0.473 ± 0.056, Y -0.268 ± 0.057, V -0.05 ± 0.041, D -0.011 ± 0.08
S52: A -0.009 ± 0.047, I -0.053 ± 0.066, M 0.019 ± 0.07, E -0.065 ± 0.066, G -0.028 ± 0.036, F -0.108 ± 0.049, D -0.232 ± 0.063, P -0.005 ± 0.055, N -0.026 ± 0.072, K 0.088 ± 0.071, Q -0.032 ± 0.06
Y49: D -0.032 ± 0.065, S -0.046 ± 0.042, W -0.026 ± 0.047, E -0.088 ± 0.057, R 0.04 ± 0.036, L 0.003 ± 0.033, H -0.074 ± 0.074, K -0.056 ± 0.063, F -0.033 ± 0.057, I 0.001 ± 0.061, C -0.024 ± 0.053, V -0.018 ± 0.038, A -0.037 ± 0.049, T -0.019 ± 0.05, Q 0.064 ± 0.063, P -0.374 ± 0.054, M 0.023 ± 0.047
G48: H -0.856 ± 0.13, C -0.793 ± 0.096, D -0.791 ± 0.11, T -0.886 ± 0.069, R -0.827 ± 0.052, Q -0.845 ± 0.075, F -0.725 ± 0.066, N -0.97 ± 0.17, P -0.68 ± 0.088, E -0.895 ± 0.12, Y -0.968 ± 0.15, I -1.13 ± 0.18, K -0.8 ± 0.069, L -0.993 ± 0.052, V -0.92 ± 0.063, M -0.946 ± 0.078, S -0.862 ± 0.057, W -1.02 ± 0.087, A -0.825 ± 0.073
I50: M -0.291 ± 0.054, R -1.01 ± 0.091, L -0.043 ± 0.035, V -0.014 ± 0.038, Q -1.2 ± 0.18, K -1.02 ± 0.15, G -0.876 ± 0.07, S -1.05 ± 0.12, F -0.121 ± 0.082, H -0.592 ± 0.17, E -0.95 ± 0.08, N -0.92 ± 0.17, Y -0.757 ± 0.1
P51: R -0.069 ± 0.033, M -0.123 ± 0.055, S -0.186 ± 0.043, D -0.196 ± 0.13, T -0.528 ± 0.067, I -0.581 ± 0.12, Q -0.128 ± 0.055, Y -0.04 ± 0.14, A -0.216 ± 0.049, W -0.164 ± 0.045, C -0.126 ± 0.059, V -0.379 ± 0.038, E -0.373 ± 0.047, N -0.102 ± 0.084, H -0.04 ± 0.097, G -0.286 ± 0.034, L -0.056 ± 0.041, K -0.106 ± 0.05, F -0.054 ± 0.077
Q46: V 0.044 ± 0.037, I 0.047 ± 0.061, T -0.048 ± 0.052, N 0.007 ± 0.075, H 0.04 ± 0.069, M -0.053 ± 0.044, S -0.065 ± 0.043, C 0.029 ± 0.055, E -0.005 ± 0.073, D -0.077 ± 0.079, F -0.028 ± 0.06, A 0.014 ± 0.051, R -0.016 ± 0.035, Y -0.127 ± 0.087, W -0.161 ± 0.045, G -0.036 ± 0.045, L -0.014 ± 0.031, P -0.616 ± 0.073
K43: E -0.005 ± 0.047, Q 0.009 ± 0.057, F -0.11 ± 0.072, G 0.004 ± 0.029, T -0.016 ± 0.049, A 0.031 ± 0.038, V -0.001 ± 0.037, S -0.016 ± 0.043, N -0.018 ± 0.085, P -0.098 ± 0.061, C -0.033 ± 0.056, D -0.094 ± 0.057, I 0.049 ± 0.066, H -0.026 ± 0.086, L -0.029 ± 0.045, M 0.021 ± 0.056, R -0.033 ± 0.033
D42: Y -0.889 ± 0.092
